Target: T1, DDX6 (Homo sapiens, UniProt P26196)
T1 chain: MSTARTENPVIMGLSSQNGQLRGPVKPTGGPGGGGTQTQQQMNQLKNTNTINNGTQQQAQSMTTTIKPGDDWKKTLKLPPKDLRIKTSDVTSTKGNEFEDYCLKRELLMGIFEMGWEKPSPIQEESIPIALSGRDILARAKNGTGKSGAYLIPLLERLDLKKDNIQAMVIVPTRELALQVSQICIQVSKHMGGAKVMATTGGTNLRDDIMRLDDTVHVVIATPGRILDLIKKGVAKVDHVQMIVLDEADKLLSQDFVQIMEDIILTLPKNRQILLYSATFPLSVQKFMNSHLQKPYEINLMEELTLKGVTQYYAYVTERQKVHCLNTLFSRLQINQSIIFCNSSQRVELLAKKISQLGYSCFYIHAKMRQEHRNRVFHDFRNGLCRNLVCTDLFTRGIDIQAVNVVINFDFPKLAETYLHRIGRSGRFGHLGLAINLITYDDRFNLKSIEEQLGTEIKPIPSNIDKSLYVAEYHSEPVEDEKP
Assay: BLI

Kd: 0.389 µM
B1: DDX3X (protein)
chain: SHVAVENALGLDQQFAGLDLNSSDNQSGGSTASKGRYIPPHLRNREATKGFYDKDSSGWSSSKDKDAYSSFGSRSDSRGKSSFFSDRGSGSRGRFDDRGRSDYDGIGSRGDRSGFGKFERGGNSRWCDKSDEDDWSKPLPPSERLEQELFSGGNTGINFEKYDDIPVEATGNNCPPHIESFSDVEMGEIIMGNIELTRYTRPTPVQKHAIPIIKEKRDLMACAQTGSGKTAAFLLPILSQIYSDGPGEALRAMKENGRYGRRKQYPISLVLAPTRELAVQIYEEARKFSYRSRVRPCVVYGGADIGQQIRDLERGCHLLVATPGRLVDMMERGKIGLDFCKYLVLDEADRMLDMGFEPQIRRIVEQDTMPPKGVRHTMMFSATFPKEIQMLARDFLDEYIFLAVGRVGSTSENITQKVVWVEESDKRSFLLDLLNATGKDSLTLVFVETKKGADSLEDFLYHEGYACTSIHGDRSQRDREEALHQFRSGKSPILVATAVAARGLDISNVKHVINFDLPSDIEEYVHRIGRTGRVGNLGLATSFFNERNINITKDLLDLLVEAKQEVPSWLENMAYEHHYKGSSRGRSKSSRFSGGFGARDYRQSSGASSSSFSSSRASSSRSGGGGHGSSRGFGGGGYGGFYNSDGYGGNYNSQGVDWWGN
